This note sets out measurements from IntAct's records for PubMed 15634206.

B1: Regulatory protein NPR4 (Arabidopsis thaliana (Mouse-ear cress)), Q5ICL9 (parent)
chain: MAATAIEPSSSISFTSSHLSNPSPVVTTYHSAANLEELSSNLEQLLTNPDCDYTDAEIIIEEEANPVSVHRCVLAARSKFFLDLFKKDKDSSEKKPKYQMKDLLPYGNVGREAFLHFLSYIYTGRLKPFPIEVSTCVDSVCAHDSCKPAIDFAVELMYASFVFQIPDLVSSFQRKLRNYVEKSLVENVLPILLVAFHCDLTQLLDQCIERVARSDLDRFCIEKELPLEVLEKIKQLRVKSVNIPEVEDKSIERTGKVLKALDSDDVELVKLLLTESDITLDQANGLHYAVAYSDPKVVTQVLDLDMADVNFRNSRGYTVLHIAAMRREPTIIIPLIQKGANASDFTFDGRSAVNICRRLTRPKDYHTKTSRKEPSKYRLCIDILEREIRRNPLVSGDTPTCSHSMPEDLQMRLLYLEKRVGLAQLFFPAEANVAMDVANVEGTSECTGLLTPPPSNDTTENLGKVDLNETPYVQTKRMLTRMKALMKTVETGRRYFPSCYEVLDKYMDQYMDEEIPDMSYPEKGTVKERRQKRMRYNELKNDVKKAYSKDKVARSCLSSSSPASSLREALENPT
partner: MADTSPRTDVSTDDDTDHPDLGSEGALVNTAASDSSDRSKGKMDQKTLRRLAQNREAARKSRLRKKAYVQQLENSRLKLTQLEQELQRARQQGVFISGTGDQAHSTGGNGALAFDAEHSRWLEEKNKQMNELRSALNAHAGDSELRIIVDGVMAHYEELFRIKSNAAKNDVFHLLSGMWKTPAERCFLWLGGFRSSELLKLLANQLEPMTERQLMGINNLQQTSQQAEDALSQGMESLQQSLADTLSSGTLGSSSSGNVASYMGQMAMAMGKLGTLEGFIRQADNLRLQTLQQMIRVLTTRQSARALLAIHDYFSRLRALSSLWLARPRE
B2: Regulatory protein NPR4 (Arabidopsis thaliana (Mouse-ear cress)), Q5ICL9 (parent)
chain: B1 chain
partner: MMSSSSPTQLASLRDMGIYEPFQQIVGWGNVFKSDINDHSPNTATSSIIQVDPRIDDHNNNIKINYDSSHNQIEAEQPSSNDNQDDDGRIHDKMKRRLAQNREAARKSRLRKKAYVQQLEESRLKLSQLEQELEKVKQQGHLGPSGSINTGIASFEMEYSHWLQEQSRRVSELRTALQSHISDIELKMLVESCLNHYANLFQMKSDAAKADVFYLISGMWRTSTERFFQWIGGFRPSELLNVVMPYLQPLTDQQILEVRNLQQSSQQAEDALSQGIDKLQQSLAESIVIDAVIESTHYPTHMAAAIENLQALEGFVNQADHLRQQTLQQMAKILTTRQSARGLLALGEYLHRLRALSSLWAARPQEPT

The variants in the first assay derive from B1. Particulars: with tga2_arath TGA2, P43273.
Regarding MAATAIEPSSSISFTSSHLSNPSPVVTTYHSAANLEELSSNLEQLLTNPDCDYTDAEIIIEEEANPVSVHRCVLAARSKFFLDLFKKDKDSSEKKPKYQMKDLLPYGNVGREAFLHFLSYIYTGRLKPFPIEVSTCVDSVCAHDSCKPAIDFAVELMYASFVFQIPDLVSSFQRKLRNYVEKSLVENVLPILLVAFHCDLTQLLDQCIERVARSDLDRFCIEKELPLEVLEKIKQLRVKSVNIPEVEDKSIERTGKVLKALDSDDVELVKLLLTESDITLDQANGLHYAVAYSDPKVVTQVLDLDMADVNFRNSRGYTVLYIAAMRREPTIIIPLIQKGANASDFTFDGRSAVNICRRLTRPKDYHTKTSRKEPSKYRLCIDILEREIRRNPLVSGDTPTCSHSMPEDLQMRLLYLEKRVGLAQLFFPAEANVAMDVANVEGTSECTGLLTPPPSNDTTENLGKVDLNETPYVQTKRMLTRMKALMKTVETGRRYFPSCYEVLDKYMDQYMDEEIPDMSYPEKGTVKERRQKRMRYNELKNDVKKAYSKDKVARSCLSSSSPASSLREALENPT [H321Y], the “effect of a mutation on the interaction” value is given as “disrupting interaction”.

In another assay the parent is B2. As to conditions: with tga7_arath TGA7, Q93ZE2.
For the variant MAATAIEPSSSISFTSSHLSNPSPVVTTYHSAANLEELSSNLEQLLTNPDCDYTDAEIIIEEEANPVSVHRCVLAARSKFFLDLFKKDKDSSEKKPKYQMKDLLPYGNVGREAFLHFLSYIYTGRLKPFPIEVSTCVDSVCAHDSCKPAIDFAVELMYASFVFQIPDLVSSFQRKLRNYVEKSLVENVLPILLVAFHCDLTQLLDQCIERVARSDLDRFCIEKELPLEVLEKIKQLRVKSVNIPEVEDKSIERTGKVLKALDSDDVELVKLLLTESDITLDQANGLHYAVAYSDPKVVTQVLDLDMADVNFRNSRGYTVLYIAAMRREPTIIIPLIQKGANASDFTFDGRSAVNICRRLTRPKDYHTKTSRKEPSKYRLCIDILEREIRRNPLVSGDTPTCSHSMPEDLQMRLLYLEKRVGLAQLFFPAEANVAMDVANVEGTSECTGLLTPPPSNDTTENLGKVDLNETPYVQTKRMLTRMKALMKTVETGRRYFPSCYEVLDKYMDQYMDEEIPDMSYPEKGTVKERRQKRMRYNELKNDVKKAYSKDKVARSCLSSSSPASSLREALENPT [H321Y], the “effect of a mutation on the interaction” value is reported as “disrupting interaction”.
